Data from US20220348670A1 (BIODURO BEIJING, published 2022).

T1: full-length human OX40 protein (human, UniProt P43489 29-277)
T1 sequence (looked up): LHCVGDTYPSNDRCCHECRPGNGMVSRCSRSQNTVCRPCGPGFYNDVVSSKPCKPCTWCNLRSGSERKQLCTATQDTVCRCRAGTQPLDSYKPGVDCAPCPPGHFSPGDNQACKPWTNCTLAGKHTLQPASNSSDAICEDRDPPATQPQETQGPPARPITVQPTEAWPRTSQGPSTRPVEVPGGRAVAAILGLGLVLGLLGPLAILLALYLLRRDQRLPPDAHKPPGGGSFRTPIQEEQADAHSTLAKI

T2: OX40-mFc protein (UniProt P43489 29-214)
T2 sequence (looked up): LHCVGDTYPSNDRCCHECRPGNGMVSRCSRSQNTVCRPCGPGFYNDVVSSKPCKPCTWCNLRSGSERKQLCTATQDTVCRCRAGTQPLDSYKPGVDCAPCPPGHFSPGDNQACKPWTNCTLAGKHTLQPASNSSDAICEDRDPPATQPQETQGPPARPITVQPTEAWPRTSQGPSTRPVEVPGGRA

T3: murine full-length OX40 (murine, UniProt P47741 20-272)
T3 construct: whole, on cells; also called CHOS-OX40 (mus); PCMV3-OX40 (Mus)
T3 sequence (looked up): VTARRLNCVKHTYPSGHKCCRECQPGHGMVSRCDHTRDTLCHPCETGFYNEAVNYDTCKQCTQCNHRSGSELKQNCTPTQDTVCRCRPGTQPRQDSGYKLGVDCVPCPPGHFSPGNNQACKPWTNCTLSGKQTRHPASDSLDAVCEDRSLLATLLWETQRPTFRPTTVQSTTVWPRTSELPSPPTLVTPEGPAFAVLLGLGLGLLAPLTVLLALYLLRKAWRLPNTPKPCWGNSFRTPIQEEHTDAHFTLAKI

T4: OX40 (CRD3-4human) (human, UniProt P43489 108-277, limits assumed)
T4 construct: domain: CRD3-4; Named only in the results sentence; its construction is not described; also called CHOS-OX40 (CRD3-4human)
T4 sequence (looked up): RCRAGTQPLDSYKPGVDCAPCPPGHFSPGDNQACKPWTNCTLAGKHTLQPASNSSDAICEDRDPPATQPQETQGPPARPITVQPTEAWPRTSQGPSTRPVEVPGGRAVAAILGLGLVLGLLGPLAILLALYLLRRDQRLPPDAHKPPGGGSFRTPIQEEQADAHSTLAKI


Tests used:
[1] = target: T1, full-length human OX40 protein; test: FACS on Jurkat-hOX40 cells, PE anti-human FC secondary antibody
Procedure: Jurkat-hOX40 stable cell lines constructed in Example 2.1 were expanded and cultured in a cell culture flask, and cells in the logarithmic growth phase were counted. The cells were centrifuged at 1000 rpm for 5 min and then resuspended in FACS buffer (PBS+1% FBS) to 2×10⁶ cells/mL, and added to a 96-well FACS culture plate at 200 μL per well. After centrifugation at 1000 rpm for 5 min, the supernatant was removed, and a series of concentration gradients of purified anti-human OX40 antibodies to be tested or isotype control were added at 200 μL per well, incubated at 4° C. for 1 hour in the dark, centrifuged at 1000 rpm for 5 min, and then added with 200 μL of PE fluorescently labeled anti-human FC secondary antibody (purchased from Invitrogen) per well, and incubated at 4° C. for 1 hour in the dark. After washing twice with FACS buffer, PBS buffer containing 1% paraformaldehyde at 200 μL per well was added to resuspend cells, and a FACS instrument (BD Accuri C6) was used for detection and analysis.

[2] = target: T1, full-length human OX40 protein; test: FACS on L929-hOX40 cells, PE anti-human FC secondary antibody
Procedure: The L929-hOX40 stable cell line constructed in Example 2.1 was cultured and expanded to 90% confluence in a cell culture flask. After washing with PBS, the cell culture was digested with 0.25% Trypsin (purchased from Thermofisher) to form a single-cell suspension, neutralized with 10% FBS-containing medium, and counted. After centrifugation at 1000 rpm for 5 min, the cells were resuspended to 2×10⁶ cells/mL with FACS buffer (PBS+1% FBS), added to a 96-well FACS culture plate at 200 μL per well, centrifuged at 1000 rpm for 5 min and the supernatant was removed. A series of concentration gradients of anti-human OX40 antibodies to be tested or isotype control were added at 200 μL per well, and incubated at 4° C. for 1 hour in the dark. After centrifugation at 1000 rpm for 5 min, 200 μL of PE fluorescently labeled anti-human FC secondary antibody (purchased from Invitrogen) was added to each well, and incubated at 4° C. for 1 hour in the dark. After washing twice with FACS buffer, PBS buffer containing 1% paraformaldehyde at 200 μL per well was added to resuspend the cells, and a FACS instrument (BD Accuri C6) was used for detection and analysis.

[3] = target: T1, full-length human OX40 protein; test: cell-based or functional assay
OX40-mFc protein = target: T2, OX40-mFc protein; test: phage ELISA, monoclonal phage supernatant on OX40-mFc
Milk = test: phage ELISA, monoclonal phage supernatant on milk (background control)
murine full-length OX40 = target: T3, murine full-length OX40; test: FACS on transiently transfected CHO-S cells
Source text: (§1) Transient transfection of OX40 expression vector: CHO-S cells were revived, and passaged for at least 2 times, and then seeded into a 6-well plate at a density of 1×10⁶ cells/well. At the following day, the above expression vectors expressing different domains of OX40 were transfected into CHO-S cells by PEI transfection method.

OX40 (CRD3-4human) = target: T4, OX40 (CRD3-4human); test: FACS on transiently transfected CHO-S cells
Source text: as §1

| Molecule | Maximum mean fluorescence intensity value (MFI) [1] [MFI] | Maximum mean fluorescence intensity value (MFI) [2] [MFI] | Maximum value (RLU), NF-kB reporter gene assay [3] [RLU] | ELISA Results (OD450) (OX40-mFc protein) | ELISA Results (OD450) (Milk) | EC50 [1] [pM] | EC50 [2] [pM] | binding result (murine full-length OX40) | binding result (OX40 (CRD3-4human)) | EC50, NF-kB reporter gene assay [3] [pM] |
| --- | --- | --- | --- | --- | --- | --- | --- | --- | --- | --- |
| Isotype control (human IgG) (antibody) | 999 | 8960 | 2650 |  |  |  |  |  |  |  |
| OX40 BC3-6 (phage-displayed VHH clone) (VHH, Tested as phage in monoclonal culture supernatant (M13 display), not as purified protein; the phage coat fusion is not described) VHH: EVQLVESGGGLVQPGGSLRLSCAASGSILDSNLMGWFRQAPGKGRELVASINSYDDNTYYPDSVEGRFTISRDNAKRMVYLQMNSLRAEDTAVYYCAAQVFVGWPYTDQMHDYWGQGTQVTVSS |  |  |  | 3.21 | 0.045 |  |  |  |  |  |
| OX40 BC3-7 (phage-displayed VHH clone) (VHH, Tested as phage in monoclonal culture supernatant (M13 display), not as purified protein; the phage coat fusion is not described) VHH: EVQLVESGGGLVQPGGSLRLSCAASGSIYDFDVMGWFRQAPGKGRELVAAINSFGDITYYPDSVEGRFTISRDNAKRMVYLQMNSLRAEDTAVYYCAADWHVLIQQVLGYWGQGTQVTVSS |  |  |  | 3.12 | 0.045 |  |  |  |  |  |
| OX40 BC3-1 (phage-displayed VHH clone) (VHH, Tested as phage in monoclonal culture supernatant (M13 display), not as purified protein; the phage coat fusion is not described) VHH: EVQLVESGGGLVQPGGSLRLSCAASGSIFSVYVMGWFRQAPGKGRELVAAITPFDDNTYYPDSVEGRFTISRDNAKRMVYLQMNSLRAEDTAVYYCAADWEWPEYNYWGQGTQVTVSS |  |  |  | 3.45 | 0.047 |  |  |  |  |  |
| OX40 BC3-4 (phage-displayed VHH clone) (VHH, Tested as phage in monoclonal culture supernatant (M13 display), not as purified protein; the phage coat fusion is not described) VHH: EVQLVESGGGLVQPGGSLRLSCAASGFIFSAYFMGWFRQAPGKGRELVAAINSNDDITYYPDSVEGRFTISRDNAKRMVYLQMNSLRAEDTAVYYCAAWLGAENYGYWGQGTQVTVSS |  |  |  | 3.31 | 0.045 |  |  |  |  |  |
| anti-human OX40 antibody BC3-1 (OX40 VHH-Fc) (Fc fusion, VHH fused through a linker to human IgG Fc, expressed in ExpiCHO, purified on Protein A; also called OX40 BC3-1; OX40 VHH-Fc antibody; not shown: linker encoded by the CMV-12GS-FC vector; human IgG FC fragment (hFC)) EVQLVESGGGLVQPGGSLRLSCAASGSIFSVYVMGWFRQAPGKGRELVAAITPFDDNTYYPDSVEGRFTISRDNAKRMVYLQMNSLRAEDTAVYYCAADWEWPEYNYWGQGTQVTVSS | 17500 | 285000 | 53400 |  |  | 256 | 488 | no binding | no binding | 209 |
| anti-human OX40 antibody BC3-4 (OX40 VHH-Fc) (Fc fusion, VHH fused through a linker to human IgG Fc, expressed in ExpiCHO, purified on Protein A; also called OX40 BC3-4; OX40 VHH-Fc antibody; not shown: linker encoded by the CMV-12GS-FC vector; human IgG FC fragment (hFC)) EVQLVESGGGLVQPGGSLRLSCAASGFIFSAYFMGWFRQAPGKGRELVAAINSNDDITYYPDSVEGRFTISRDNAKRMVYLQMNSLRAEDTAVYYCAAWLGAENYGYWGQGTQVTVSS | 24000 | 308000 | 55700 |  |  | 395 | 862 | no binding | no binding | 175 |
| anti-human OX40 antibody BC3-6 (OX40 VHH-Fc) (Fc fusion, VHH fused through a linker to human IgG Fc, expressed in ExpiCHO, purified on Protein A; also called OX40 BC3-6; OX40 VHH-Fc antibody; not shown: linker encoded by the CMV-12GS-FC vector; human IgG FC fragment (hFC)) EVQLVESGGGLVQPGGSLRLSCAASGSILDSNLMGWFRQAPGKGRELVASINSYDDNTYYPDSVEGRFTISRDNAKRMVYLQMNSLRAEDTAVYYCAAQVFVGWPYTDQMHDYWGQGTQVTVSS | 12800 | 198000 | 50300 |  |  | 683 | 545 | no binding | no binding | 162 |
| anti-human OX40 antibody BC3-7 (OX40 VHH-Fc) (Fc fusion, VHH fused through a linker to human IgG Fc, expressed in ExpiCHO, purified on Protein A; also called OX40 BC3-7; OX40 VHH-Fc antibody; not shown: linker encoded by the CMV-12GS-FC vector; human IgG FC fragment (hFC)) EVQLVESGGGLVQPGGSLRLSCAASGSIYDFDVMGWFRQAPGKGRELVAAINSFGDITYYPDSVEGRFTISRDNAKRMVYLQMNSLRAEDTAVYYCAADWHVLIQQVLGYWGQGTQVTVSS | 24100 | 327000 | 48400 |  |  | 548 | 693 | no binding | no binding | 130 |
